Bridges are numbered along the chain shown (N, C = ends). Where no end group is shown, it is not given here.
Tests used:
HepG2 cells [1] = experiment: Luciferase reporter gene expression in HepG2 cells, Example 5; assay type: cell-based
Protocol: HepG2 cells (1.5×10^5) were plated on 6×35 mm wells and grown to 40-70% confluency in MEM supplemented with 10% FBS, penicillin and streptomycin (10,000 U/ml), sodium pyruvate (100 mM), and L-glutamine (200 mM). Transfections were performed in MEM (2 ml per 35 mm well) with 2% FBS and 80 μM chloroquine. Peptide DNA condensates (10 μg of DNA in 0.2 ml HBM) were added dropwise to triplicate wells. After a 5 h incubation at 37° C., the media was replaced with MEM supplemented with 10% FBS. After 24 h, cells were washed twice with ice-cold phosphate buffered saline (calcium and magnesium free) and then treated with 0.5 ml of ice-cold lysis buffer (25 mM Tris chloride pH 7.8, 1 mM EDTA, 8 mM magnesium chloride, 1% Triton X-100, 1 mM DTT) for 10 min. The cell lysate was scraped, transferred to 1.5 ml microcentrifuge tubes, and centrifuged for 7 min at 13,000 g at 4° C. to pellet debris.
Lysis buffer (300 μl), sodium-ATP (4 μl of a 180 mM solution, pH 7, 4° C.) and cell lysate (100 μl, 4° C.) were combined in a test tube, briefly mixed and immediately placed in the luminometer. Luciferase relative light units (RLU) were recorded on a Lumat™ LB 9501 (Berthold systems, Germany) with 10 sec integration after automatic injection of 100 μl of 0.5 mM D-luciferin (prepared fresh in lysis buffer without DTT). The RLU were converted in fmol using a standard curve generated by adding a known amount of luciferase (0.01 to 100 fmols with specific activity of 2.5 nU/fmol) to 35 mm wells containing 40-70% confluent HepG2 cells. The cells were processed as described above resulting in a standard curve with an average slope of 7.8×10^6 RLU per fmol of enzyme. Protein concentrations were measured by Bradford assay using bovine serum albumin as a standard (Bradford, 1976). The amount of luciferase recovered in each sample was normalized to milligrams of protein and reported as the mean and standard deviation obtained from triplicate transfections.
LipofectAce™ (Gibco BRL, 1:2.5 w/w dimethyl diotadecylammonium bromide and dioleoyl phosphatidylethanolamine) was used to mediate gene transfection according to the manufacturer's instructions. The ratio of DNA to LepofectAce™ was optimized for HepG2 cells. An optimal DNA/LipofectAce™ ratio was achieved by dissolving 10 μg of DNA in 100 μl serum free media (SFM) followed by adding 60 μl of LipofectAce™ prepared in 140 μl of SFM. The LipfectAce™ DNA complex was then diluted with 1.7 ml of SFM and used to transfect HepG2 cells for 5 h followed by replacing the transfecting media with media supplemented with 10% FBS. The cells were incubated for a total of 24 h, harvested and analyzed for luciferase as described above.

HepG2 cells [2] = experiment: Transient SEAP gene expression over 10 days; assay type: cell-based; conditions: with chloroquine
Protocol: HepG2 cells (3×10^5) were plated on 6×35 mm wells and grown for 48 h to 40% confluence in MEM supplemented with 10% fetal calf serum (FCS). Crosslinked DNA condensates (10 μg of DNA in 200 μL) were transfected in triplicate by drop wise addition to cells in 2% FCS either with or without 80 μM chloroquine followed by 5 h incubation, after which the media was replaced with 2 mL of MEM containing 10% fetal calf serum and allowed to incubate for an additional 19 h. Wells were sampled for 10 days at 24 h intervals by removing and freezing (−20° C.) the media and replacing it with 2 mL of fresh 10% FCS MEM.
The amount of SEAP in each well was determined using a chemiluminescent kit. Media (50 μL) was combined with 50 μl of dilution buffer followed by incubation at 65° C. for 30 min to denature endogenous alkaline phosphatase. […] After 30 min, the luminescence was measured with a 10 s integration on a Berthold Lumat™ LB 9501 luminometer. Light units were converted to μg/ml of SEAP using a standard curve constructed by adding known quantities of SEAP to cell homogenate. Background alkaline phosphatase production was determined from a 10 day null control that was subtracted from each data set.

[3] = QELS particle size and zeta potential of cross-linking peptide DNA condensates, Example 5; assay type: physicochemical
Protocol: The particle size of each peptide DNA condensate was determined by quasielastic light scattering (QELS) at a scatter angle of both 15° and 90° on a Brookhaven ZetaPlus™ particle sizer. Condensates were prepared at a DNA concentration of 50 μg/ml in 400 μl HBM at a stoichiometry of 0.4 nmol of peptide per μg of DNA corresponding to a charge ratio of approximately 2:1 for each. The mean diameter and population distribution were computed from the diffusion coefficient using a unimodal cummulant analysis supplied by the manufacturer.
The particle size and zeta peptide IV DNA condensates were determined by titrating 7.5 to 37.5 nmol of peptide with 75 μg of DNA in 1.5 ml of HBM to produce 50 μg/ml DNA condensates with charge ratio of 0.5-2.5. The zeta potential was averaged from 10 determines.

plasmid DNA = experiment: Fluorescent dye (thiazole orange) displacement assay of peptide binding to DNA, Example 1; conditions: corresponding to a charge ratio of 1.8:1
Protocol: Peptide DNA condensates were formed by adding 75 μg of DNA (pCMVL in 750 μl of 5 mM Hepes pH 7.4) to varying amounts of peptide (7.5 to 90 nmol in 750 μl of Hepes) while vortexing, followed by equilibration at RT for 1 h. Peptide binding to DNA was monitored by a fluorescent dye displacement assay (Wadhwa et al. 1997). A 1 μg aliquot of the peptide DNA condensate was diluted to 1 ml in Hepes containing 0.1 μM thiazole orange. The fluorescence of the intercalated dye was measured on an LS50B fluorimeter (Perkin Elmer, UK) in a microcuvette by exciting at 500 nm while monitoring emission at 530 nm.

HepG2 cells [4] = experiment: Cell binding of 125I-DNA condensates, Example 1; assay type: cell-based; conditions: 5 h transfection, 10 μg 125I-DNA condensates
Protocol: Iodinated plasmid DNA was prepared with specific activity of 300 nCi per μg of DNA as described previously (Teribesi et al., 1998). Prior to forming DNA condensates, the specific activity of the ^125I DNA was adjusted to 4.5 nCi per μg of DNA by combining with unlabeled plasmid. DNA condensates were prepared using AlkCWK18, PEG-SS-CWK18 or PEG-VS-CWK18 as described above. Peptide ^125I-DNA condensates (10 μg) were used to transfer HepG2 cells for 5 h according to the procedure described above. The radioactive media was removed, cells were washed with phosphate buffered saline, harvested with lysis buffer, and the cell-associated radioactivity was quantified by gamma counting.

[5] = Solubility of peptide DNA condensates: particle size as a function of DNA concentration; assay type: physicochemical; conditions: at 2 mg/ml DNA
HepG2 cells [6] = experiment: In vitro luciferase gene expression, Example 1; assay type: cell-based; conditions: HepG2, 24 h post-transfection, 10 μg DNA, 80 μM chloroquine
Protocol: HepG2 cells were plated at 1.5×10^5 cells per 35 mm well and grown to 40-70% confluence in MEM supplemented with 10% fetal calf serum (FCS). Peptide DNA condensates (10 μg of DNA) were added dropwise to triplicate sets of cells in 2% FCS containing 80 μM chloroquine. After 5 h incubation at 37° C., the media was replaced with MEM supplemented with 10% FCS, and luciferase expression was determined at 24 h. Cells were washed twice with ice-cold phosphate buffered saline (calcium and magnesium free) and then treated with 0.5 ml of ice-cold lysis buffer (25 mM Tris hydrochloride pH 7.8, 1 mM EDTA, 8 mM magnesium chloride, 1% Triton X-100, 1 mM DTT) for 10 min. The cell lysate was scraped, transferred to 1.5 ml micro centrifuge tubes, and centrifuged for 7 min at 13,000 g at 4° C. to pellet debris.
Lysis buffer (300 μl), sodium-ATP (4 μl of a 180 mM solution, pH 7, 4° C.) and cell lysate (100 μl, 4° C.) were combined in a test tube, briefly mixed and immediately placed in the luminometer. Luciferase relative light units (RLU) were recorded on a Lumat™ LB 9501 (Berthold Systems, Germany) with 10 sec integration after automatic injection of 100 μl of 0.5 mM D-luciferin (prepared fresh in lysis buffer without DTT). […]

[7] = QELS particle size and zeta potential of PEG-peptide DNA condensates and co-condensates, Example 1; assay type: physicochemical
Protocol: The particle size of peptide DNA condensates were analyzed at a DNA concentration of 50 μg/ml in Hepes by quasielastic light scattering (QELS). The particle surface change was determined by zeta potential analysis using a Brookhaven ZetaPlus™ (Brookhaven Instruments).
DNA co-condensates were prepared by add-mixing AlkCWK18 and PEG-VS-CWK18 in ratios ranging from 0 to 100 mol %, and condensing DNA at a charge ratio of 2.3:1 as described above. To establish the mol ratio of peptides bound to DNA, condensates were dialyzed in a fixed volume (0.5 ml) dialyzer for 75 h against water using a 100,000 MWCO membrane. Peptide DNA condensates in the retentate (0.5 ml) were dissociated by adding 50 μl of 5 M sodium chloride in 0.1% TFA. AlkCWK18 and PEG-VS-CWK18 were quantified by injecting 1 nmol of peptide (100 μl) onto analytical RP-HPLC eluted with 0.1% TFA and a gradient of acetonitrile (5 to 65% over 30 min) while detecting tryptophan by fluorescence (λex 280 nm, λem 350 nm). The peak integration areas were used to quantify AlkCWK18 and PEG-VS-CWK18 with reference to standard curves developed for each peptide.

Lys18-Trp-Cys-S-S-Cys-Trp-Lys18 (KKKKKKKKKKKKKKKKKKWCCWKKKKKKKKKKKKKKKKKK; disulfide 20-21; also: disulfide-linked dimer of two CWK18 chains, no peptide bond between positions 20 and 21) [DiCWK18]
inferiority to polylysine1007 as a DNA carrier (gene expression) (HepG2 cells [1]): 5 fold
more gene product relative to CWK18 DNA condensates (HepG2 cells [2]): approximately 10%
slope of the day 7-10 cumulative SEAP expression (HepG2 cells [2]; HMW polylysine panel (FIG. 29B)): 32.7 ng/mL
Particle Size Mean Diameter, Oxidized, 15° ([3]; HBM after 2 h incubation, 50 μg/ml DNA, 0.4 nmol peptide per μg DNA, scattering angle 15°): 74 nm
Particle Size Mean Diameter, Oxidized, 90° ([3]; HBM after 2 h incubation, 50 μg/ml DNA, 0.4 nmol peptide per μg DNA, scattering angle 90°): 68 nm
Particle Size Mean Diameter, Saline ([3]; HBM with added saline (0.15 M) after 15 min): 171 nm
Particle Size Mean Diameter, Reduced ([3]; following addition of TCEP (1 mM)): 153 nm

PEG-SS-CWK18: reducible PEG-peptide from PEG-orthopyridyl-disulfide (5 kDa) and the sulfhydryl of CWK18 (CWKKKKKKKKKKKKKKKKKK; not fully specified (residue 1))
peptide:DNA stoichiometry at the asymptote of the dye displacement titration curve (relative DNA binding affinity) (plasmid DNA): 0.3 nmol per μg of DNA
cell associated 125I-DNA, percent of dose (HepG2 cells [4]): 6.8%
mean diameter of DNA condensates [5]: 88 nm
reduction of spontaneous gene transfer (luciferase expression) relative to AlkCWK18 DNA condensates (HepG2 cells [6]): five-fold
zeta potential of DNA condensates ([7]; charge ratio 1.8:1): +10 mV
mean diameter of DNA condensates ([7]; charge ratio of 1.8:1 or higher, 50 μg/ml DNA in Hepes): 90 nm

— US6770740B1, “Crosslinked DNA condesate compositions and gene delivery methods” (The Regents of the University of Michigan, priority 1999, dated 2004)
